Experimental data: article PMC7762940

Target: TubY C-terminal domain (BcYCΔ; residues 107-182) of pBc10987 from Bacillus cereus (Bacillus cereus (plasmid pBc10987))
Assay: crystal structure; Se-substituted BcYCΔ at 1.4 mM in 10 mM Tris pH 8.0, 0.1 M NaCl, 3 mM DTT; sitting drop, 20 °C, 0.1 M HEPES pH 7.5, 0.2 M MgCl2, 30% PEG400; 2.6 Å; four monomers in the asymmetric unit

## TubY C-terminal domain (BcYCΔ; residues 107-182) of pBc10987 from Bacillus cereus (domain or fragment)
  stoichiometry N: 4
